Measurements from article PMC2815668, “Pseudo-merohedral twinning and noncrystallographic symmetry in orthorhombic crystals of SIVmac239 Nef core domain bound to different-length TCRζ fragments” (Acta Crystallographica Section D: Biological Crystallography, 2010).

Molecular target: T1, SIVmac239 Nef core domain, GS-Nef (Asp95–Ser235) (simian immunodeficiency virus, isolate …, UniProt P31818 95-235)
T1 construct: source: E. coli BL21 (DE3), purified (Ni-NTA under 8 M urea, dialysis, thrombin cleavage, anion exchange, SEC)
T1 sequence: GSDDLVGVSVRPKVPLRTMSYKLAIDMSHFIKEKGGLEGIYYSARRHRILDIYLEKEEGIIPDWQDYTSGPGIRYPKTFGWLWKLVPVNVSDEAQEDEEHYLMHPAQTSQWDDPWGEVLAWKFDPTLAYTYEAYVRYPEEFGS
Experiment: not stated; unpublished results; stoichiometry of the complex
Conditions: both partners purified

B1: TCRζDP1 (Leu51–Asp93), N-terminal acid-cleavage fragment of the TCRζ cytoplasmic domain (domain or fragment)
chain: LRVKFSRSADAPAYQQGQNQLYNELNLGRREEYDVLDKRRGRD
notes: also called longer TCRζ polypeptide; source: acid cleavage of purified TCRζcyt (30% acetonitrile, 0.5% TFA, 48 h, 323 K), isolated by reverse-phase chromatography
stoichiometry N: 1
